Results published in PMC314469, “Protein Interaction Networks by Proteome Peptide Scanning” (PLoS Biology, 2004).

T1: Boi1 SH3 (BOI1_YEAST), P38041
T1 chain: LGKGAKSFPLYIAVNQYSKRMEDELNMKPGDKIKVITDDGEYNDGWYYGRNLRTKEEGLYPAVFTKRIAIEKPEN

T2: Boi2 SH3 (BOI2_YEAST), P39969
T2 chain: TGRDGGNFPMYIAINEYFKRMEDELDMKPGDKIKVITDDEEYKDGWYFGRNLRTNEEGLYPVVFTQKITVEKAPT

T3: Myo5 SH3 (MYO5_YEAST), Q04439
T3 chain: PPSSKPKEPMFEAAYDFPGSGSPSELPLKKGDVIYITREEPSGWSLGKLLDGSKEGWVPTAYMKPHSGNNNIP

T4: Rvs167 SH3 (RV167_YEAST), P39743
T4 chain: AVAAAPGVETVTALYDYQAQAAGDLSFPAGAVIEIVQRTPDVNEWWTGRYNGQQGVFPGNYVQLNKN

T5: Yfr024 SH3 (LSB3_YEAST), P43603
T5 chain: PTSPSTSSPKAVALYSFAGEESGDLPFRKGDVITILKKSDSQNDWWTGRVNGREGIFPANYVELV

T6: Yhr016c SH3 (YSC84_YEAST), P32793
T6 chain: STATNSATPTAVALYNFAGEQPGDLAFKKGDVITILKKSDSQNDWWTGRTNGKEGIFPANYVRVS


Legend:
Assay in all cases: SPOT array
[1] = target: T1, Boi1 SH3 (BOI1_YEAST), P38041
[2] = target: T2, Boi2 SH3 (BOI2_YEAST), P39969
[3] = target: T3, Myo5 SH3 (MYO5_YEAST), Q04439
[4] = target: T4, Rvs167 SH3 (RV167_YEAST), P39743
[5] = target: Sho1 SH3 (SHO1_YEAST), P40073
Sho1 SH3 (SHO1_YEAST), P40073, sequence (P40073 295-366): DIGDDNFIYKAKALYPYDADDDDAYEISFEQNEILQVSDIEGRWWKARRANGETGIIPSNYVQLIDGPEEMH

[6] = target: T5, Yfr024 SH3 (LSB3_YEAST), P43603
[7] = target: T6, Yhr016c SH3 (YSC84_YEAST), P32793

Row | Binder | normalised SPOT signal, Boehringer light units (BLU); mean over the file's lines of this peptide [1] | normalised SPOT signal, Boehringer light units (BLU); mean over the file's lines of this peptide [2] | normalised SPOT signal, Boehringer light units (BLU); mean over the file's lines of this peptide [3] | normalised SPOT signal, Boehringer light units (BLU); mean over the file's lines of this peptide [4] | normalised SPOT signal, Boehringer light units (BLU); mean over the file's lines of this peptide [5] | normalised SPOT signal, Boehringer light units (BLU); mean over the file's lines of this peptide [6] | normalised SPOT signal, Boehringer light units (BLU); mean over the file's lines of this peptide [7]
1 | ISNRRPVPRRPSQP [YPR091C 658-671] | 4610 | 56.9 | 377 | 82100 | 129 | 36800 | 17200
2 | KALWKIQPYLPEFS [YML130C 280-293] | 0 | 47.8 | 146 | 41.7 | 178 | 201 | 43
3 | IVNEKRTPALPSNL [YOR191W 260-273] | 73.8 | 20.9 | 102 | 51.5 | 86.8 | 74.4 | 11.6
4 | KAALKYHPDKPTGD [YNL007C 28-41] | 21.4 | 18.7 | 156 | 84.8 | 60.7 | 32.9 | 18.6
5 | ITSIRGSPSLPKNK [YKL071W 35-48] | 420 | 31.5 | 370 | 104 | 111 | 1400 | 44.2
6 | ITDTKLFPGNPNLM [YFR029W 524-537] | 113 | 2.3 | 94.6 | 67.4 | 43.8 | 28.7 | 15.4
7 | IYHSKKQPLVPIGS [YML030W 25-38] | 182 | 21 | 294 | 160 | 144 | 189 | 86.8
8 | ITAEKSAPTSPEVY [YMR219W 1471-1484] | 92.4 | 0 | 94.2 | 3.5 | 116 | 63.9 | 71.1
9 | KDFSKNAPYNPSEV [YPR022C 111-124] | 76.6 | 53.8 | 143 | 63.7 | 42 | 0 | 59.1
10 | KDKARGNPEKPPYW [YJL036W 14-27] | 247 | 15.2 | 59.9 | 67.1 | 50.3 | 63.5 | 19.5
11 | ITRARYMPQDPNIV [YEL056W 121-134] | 2220 | 70.9 | 190 | 111 | 153 | 486 | 84.6
12 | KDEVKLHPPEPKDL [YIL009W 251-264] | 102 | 2.4 | 164 | 32.3 | 50.6 | 0 | 18.9
13 | KALPKRRPSPPLQS [YKR019C 209-222] | 1770 | 30.5 | 1140 | 906 | 758 | 13400 | 2190
